Data on two molecules can be found in article PMC3513567 (Molecular cell, 2012).

Substitutions are numbered along the chain they refer to.

The target of test [1] is truncated murine LEP-R construct (D1-D5) lacking the two membrane-proximal FnIII domains (murine). The experiment in a line: ITC. A general note: ITC needs no label: the signal is the heat of the interaction.
Test [2] has as its target T1, extracellular region (domains D1-D7) of murine LEP-R (murine, UniProt P48356 22-839).
T1 sequence (looked up): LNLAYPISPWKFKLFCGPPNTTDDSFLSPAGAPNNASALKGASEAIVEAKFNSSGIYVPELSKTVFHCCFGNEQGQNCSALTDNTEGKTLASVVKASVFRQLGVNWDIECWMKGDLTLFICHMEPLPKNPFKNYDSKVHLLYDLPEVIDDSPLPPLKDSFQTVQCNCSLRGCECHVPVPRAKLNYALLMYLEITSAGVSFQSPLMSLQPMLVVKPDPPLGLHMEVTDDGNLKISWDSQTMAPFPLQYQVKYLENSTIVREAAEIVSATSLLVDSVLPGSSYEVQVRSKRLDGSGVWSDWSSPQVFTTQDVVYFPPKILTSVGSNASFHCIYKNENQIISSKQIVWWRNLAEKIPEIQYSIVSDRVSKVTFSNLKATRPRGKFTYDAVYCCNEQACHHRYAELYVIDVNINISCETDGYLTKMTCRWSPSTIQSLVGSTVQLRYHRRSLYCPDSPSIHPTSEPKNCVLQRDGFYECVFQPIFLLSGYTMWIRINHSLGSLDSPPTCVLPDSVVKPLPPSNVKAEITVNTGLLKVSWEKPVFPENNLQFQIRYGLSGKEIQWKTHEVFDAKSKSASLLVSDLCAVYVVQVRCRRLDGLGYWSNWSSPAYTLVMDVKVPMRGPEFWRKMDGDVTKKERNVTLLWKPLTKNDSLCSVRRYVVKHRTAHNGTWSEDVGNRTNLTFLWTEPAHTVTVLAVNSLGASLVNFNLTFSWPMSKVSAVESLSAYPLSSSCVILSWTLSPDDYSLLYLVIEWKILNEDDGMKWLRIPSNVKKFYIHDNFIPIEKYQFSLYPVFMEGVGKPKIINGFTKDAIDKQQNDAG
The experiment in a line: ITC.

Test [3] deals with T2, LEP-R[D1-D7] construct bearing the IgD mutation L370A (murine, UniProt P48356 22-839, L370A).
T2 sequence (looked up): T1 sequence (looked up) with L349A
The experiment in a line: negative-stain single-particle electron microscopy.

Sequence of truncated murine LEP-R construct (D1-D5) lacking the two membrane-proximal FnIII domains (murine) (P48356 whole entry, the tested form may be a part): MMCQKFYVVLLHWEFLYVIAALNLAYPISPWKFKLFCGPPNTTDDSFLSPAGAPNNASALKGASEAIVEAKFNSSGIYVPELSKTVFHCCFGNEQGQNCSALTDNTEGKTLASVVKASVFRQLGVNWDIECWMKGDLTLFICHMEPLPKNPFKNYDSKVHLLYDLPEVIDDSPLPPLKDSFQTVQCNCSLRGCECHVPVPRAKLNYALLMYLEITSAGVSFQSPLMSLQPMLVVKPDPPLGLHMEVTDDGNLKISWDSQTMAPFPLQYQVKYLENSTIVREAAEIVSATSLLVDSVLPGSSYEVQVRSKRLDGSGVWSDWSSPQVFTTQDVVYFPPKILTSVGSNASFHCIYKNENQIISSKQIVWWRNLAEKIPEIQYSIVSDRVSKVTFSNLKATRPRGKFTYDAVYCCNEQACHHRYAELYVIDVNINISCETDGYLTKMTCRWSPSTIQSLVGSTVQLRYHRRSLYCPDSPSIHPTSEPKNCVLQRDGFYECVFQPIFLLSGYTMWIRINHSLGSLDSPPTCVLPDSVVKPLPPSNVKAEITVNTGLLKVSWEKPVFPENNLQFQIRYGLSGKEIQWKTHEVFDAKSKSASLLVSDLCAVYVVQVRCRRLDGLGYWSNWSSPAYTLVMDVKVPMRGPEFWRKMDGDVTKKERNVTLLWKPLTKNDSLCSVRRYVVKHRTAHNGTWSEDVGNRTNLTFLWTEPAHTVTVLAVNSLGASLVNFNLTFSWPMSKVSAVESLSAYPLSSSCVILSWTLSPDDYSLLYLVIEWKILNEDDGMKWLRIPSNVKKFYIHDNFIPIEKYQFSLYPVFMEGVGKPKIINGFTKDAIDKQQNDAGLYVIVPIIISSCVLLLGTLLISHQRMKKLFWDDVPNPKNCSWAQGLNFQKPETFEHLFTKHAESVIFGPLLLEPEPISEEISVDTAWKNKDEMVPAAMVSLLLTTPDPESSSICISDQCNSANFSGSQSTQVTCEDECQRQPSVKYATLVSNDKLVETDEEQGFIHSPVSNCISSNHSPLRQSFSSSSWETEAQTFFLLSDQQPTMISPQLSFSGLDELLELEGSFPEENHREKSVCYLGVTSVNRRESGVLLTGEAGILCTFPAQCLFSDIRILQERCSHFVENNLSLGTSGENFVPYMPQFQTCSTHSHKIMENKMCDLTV

The Kd is a measure of binding affinity in units of concentration. A low value points to a tighter complex. As for “recombinant murine leptin (from UniProt P41160 22-167) (ligand)”, in test [1], the Kd was 17 nM and the stoichiometry N (receptor:ligand) is 1.

B1: recombinant murine leptin (ligand, UniProt P41160 22-167, looked up)
chain: VPIQKVQDDTKTLIKTIVTRINDISHTQSVSAKQRVTGLDFIPGLHPILSLSKMDQTLAVYQQVLTSLPSQNVLQIANDLENLRDLLHLLAFSKSCSLPQTSGLQKPESLDGVLEASLYSTEVVALSRLQGSLQDILQQLDVSPEC
B1: the “stoichiometry N” value in test [2] was ~1 receptor:ligand. Also, in test [3], the binding result was “binds”.
